Experimental data from patent US20250043302A1, “MUTATED HYDROXYPHENYLPYRUVATE DIOXYGENASE POLYPEPTIDE, AND CODING GENE AND USE THEREOF” (BEIJING DABEINONG BIOTECHNOLOGY CO., LTD., priority 2021, published 2025).

Tests used:
Assay type in all cases: in vivo
[1] = tested on: Arabidopsis thaliana T1 plants; assay: Topramezone tolerance of transgenic Arabidopsis thaliana T1 plants (spray, bleached leaf area grade, damage score); conditions: 7 DAT, Table 4; for Classification and statistics of the grade of pesticide damage: Grade 0 / Classification and statistics of the grade of pesticide damage: Grade 1 / Classification and statistics of the grade of pesticide damage: Grade 2 / Classification and statistics of the grade of pesticide damage: Grade 3: number of plants; for Scores: pesticide damage score 0-100
Outline: (§1)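 Damage graded 0–3 from the proportion of bleached leaf area 7 days after spraying. Plants were glufosinate-selected T1 lines, 18 days after sowing, plus vector and wild-type controls. Rates: mesotrione 52.5–420, isoxaflutole 35–280, topramezone 25–200 g ai/ha, with water (0×).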

[2] = tested on: Arabidopsis thaliana T1 plants; assay: Isoxaflutole tolerance of transgenic Arabidopsis thaliana T1 plants (spray, bleached leaf area grade, damage score); set-up: Scores (pesticide damage): scale not given here; conditions: spray, Arabidopsis thaliana T1 plants; for Classification and statistics of the grade of pesticide damage: Grade 0 (number of plants) / Classification and statistics of the grade of pesticide damage: Grade 1 (number of plants) / Classification and statistics of the grade of pesticide damage: Grade 2 (number of plants) / Classification and statistics of the grade of pesticide damage: Grade 3 (number of plants): 16 plants
Outline: as §1

[3] = tested on: Arabidopsis thaliana T1 plants; assay: Mesotrione tolerance of transgenic Arabidopsis thaliana T1 plants (spray, bleached leaf area grade, damage score); set-up: Scores: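 damage score 0-100 computed as Σ(N×S)/(T×M)×100 over grades 0-3 with higher meaning more damage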; conditions: Arabidopsis thaliana T1 plants; for Grade 0 (classification and statistics of the grade of pesticide damage; number of plants) / Grade 1 (classification and statistics of the grade of pesticide damage; number of plants) / Grade 2 (classification and statistics of the grade of pesticide damage; number of plants) / Grade 3 (classification and statistics of the grade of pesticide damage; number of plants): 16 plants
Outline: as §1

[4] = isoxaflutole 35 g ai/ha (0.5x field concentration)
[5] = isoxaflutole 70 g ai/ha (1x field concentration)

B1: ZmHPPDm-F372A-F383W-02: nucleotide sequence encoding Zea mays HPPD with F372A+F383W; vector DBN11769 (nucleic acid)
DNA: ATGCCACCCACACCCACAGCAGCAGCGGCGGGCGCAGCGGTCGCAGCGGCGTCAGCGGCGGAGCAAGCGGCGTTCAGATTGGTTGGTCACCGCAACTTCGTGAGATTCAATCCTCGCTCAGATAGATTCCATACTCTGGCCTTCCACCATGTTGAGCTTTGGTGCGCTGATGCTGCTTCTGCTGCTGGAAGGTTCAGCTTCGGTTTGGGTGCTCCCCTCGCTGCTAGATCTGATTTGAGCACTGGTAACTCAGCACATGCTTCCCTCCTGCTTAGATCTGGCTCTCTGAGCTTCCTTTTCACTGCTCCATATGCTCATGGTGCTGATGCTGCTACAGCTGCTCTCCCTTCATTCTCCGCTGCTGCTGCTAGGAGATTCGCTGCTGATCACGGATTGGCTGTGAGGGCTGTTGCACTTAGAGTTGCTGATGCTGAGGAGGCCTTCCGCACCTCTGTTGCTGCTGGAGCCAGACCAGCTTTCGGACCTGTTGATCTCGGAAGGGGTTTCCGCCTGGCTGAGGTGGAGCTTTACGGCGATGTGGTTCTGCGCTACGTTAGCTATCCTGATGGTGCTGCTGGTGAACCTTTCCTTCCAGGATTCGAGGGTGTGGCCTCACCAGGTGCCGCTGATTACGGCCTGTCCAGATTCGACCACATTGTTGGAAATGTTCCTGAGCTTGCTCCAGCTGCTGCCTACTTCGCTGGCTTCACCGGATTCCATGAGTTCGCCGAGTTCACCACTGAGGATGTGGGAACTGCTGAGTCTGGTTTGAATAGCATGGTGCTCGCCAACAATTCAGAGAACGTTTTGCTCCCTCTGAATGAGCCCGTGCACGGAACAAAGAGAAGGTCCCAGATTCAAACCTTCTTGGATCACCACGGCGGCCCAGGTGTTCAGCATATGGCTCTCGCCTCCGATGACGTGTTGAGAACCCTCAGGGAGATGCAAGCCAGGTCTGCTATGGGTGGCTTCGAGTTCATGGCCCCACCTACAAGCGATTACTATGATGGTGTGCGCAGAAGGGCTGGCGACGTTCTTACCGAGGCTCAGATCAAGGAGTGCCAAGAGCTGGGCGTGCTTGTTGATAGAGATGACCAGGGAGTTCTGCTTCAAATTGCTCCCAAGCCAGTGGGCGACAGGCCTACTTTGTGGCTCGAGATTATCCAGAGAATCGGATGCATGGAGAGGGATGAGAAGGGTCAGGAGTACCAAAAGGGAGGTTGCGGCGGATTCGGCAAGGGAAATTTCTCACAACTCTTCAAGTCCATCGAGGACTATGAAAAGAGTCTGGAAGCGATGCAGGCAGCAGCAGCAGCAACCGCACAGGGGTCGTGA
modifications: ZmHPPDm-F372A-F383W-02 Nucleotide Sequence
notes: vector DBN11769
- Classification and statistics of the grade of pesticide damage: Grade 0 ([1]; topramezone 25 g ai/ha (1×)): 16
- Classification and statistics of the grade of pesticide damage: Grade 1 ([1]; topramezone 25 g ai/ha (1×)): 0
- Classification and statistics of the grade of pesticide damage: Grade 2 ([1]; topramezone 25 g ai/ha (1×)): 0
- Classification and statistics of the grade of pesticide damage: Grade 3 ([1]; topramezone 25 g ai/ha (1×)): 0
- Classification and statistics of the grade of pesticide damage: Grade 0 ([1]; topramezone 100 g ai/ha (4×)): 10
- Classification and statistics of the grade of pesticide damage: Grade 1 ([1]; topramezone 100 g ai/ha (4×)): 5
- Classification and statistics of the grade of pesticide damage: Grade 2 ([1]; topramezone 100 g ai/ha (4×)): 1
- Classification and statistics of the grade of pesticide damage: Grade 3 ([1]; topramezone 100 g ai/ha (4×)): 0
- Scores ([1]; topramezone 25 g ai/ha (1×)): 0
- Scores ([1]; topramezone 100 g ai/ha (4×)): 15
- Resistance evaluation ([1]; topramezone 25 g ai/ha (1×)): highly
- Resistance evaluation ([1]; topramezone 100 g ai/ha (4×)): highly
- Resistance evaluation [2, 4]: Moderately
- Scores (pesticide damage) [2, 4]: 25
- Classification and statistics of the grade of pesticide damage: Grade 0 (number of plants) [2, 4]: 5
- Classification and statistics of the grade of pesticide damage: Grade 1 (number of plants) [2, 4]: 10
- Classification and statistics of the grade of pesticide damage: Grade 2 (number of plants) [2, 4]: 1
- Classification and statistics of the grade of pesticide damage: Grade 3 (number of plants) [2, 4]: 0
- Resistance evaluation [2, 5]: Poorly
- Scores (pesticide damage) [2, 5]: 38
- Classification and statistics of the grade of pesticide damage: Grade 0 (number of plants) [2, 5]: 3
- Classification and statistics of the grade of pesticide damage: Grade 1 (number of plants) [2, 5]: 8
- Classification and statistics of the grade of pesticide damage: Grade 2 (number of plants) [2, 5]: 5
- Classification and statistics of the grade of pesticide damage: Grade 3 (number of plants) [2, 5]: 0
- Resistance evaluation ([3]; mesotrione 52.5 g ai/ha): Highly resistant
- Scores ([3]; mesotrione 52.5 g ai/ha): 15
- Grade 0 (classification and statistics of the grade of pesticide damage; number of plants) ([3]; mesotrione 52.5 g ai/ha): 9
- Grade 1 (classification and statistics of the grade of pesticide damage; number of plants) ([3]; mesotrione 52.5 g ai/ha): 7
- Grade 2 (classification and statistics of the grade of pesticide damage; number of plants) ([3]; mesotrione 52.5 g ai/ha): 0
- Grade 3 (classification and statistics of the grade of pesticide damage; number of plants) ([3]; mesotrione 52.5 g ai/ha): 0
- Resistance evaluation ([3]; mesotrione 105 g ai/ha): Moderately
- Scores ([3]; mesotrione 105 g ai/ha): 33
- Grade 0 (classification and statistics of the grade of pesticide damage; number of plants) ([3]; mesotrione 105 g ai/ha): 3
- Grade 1 (classification and statistics of the grade of pesticide damage; number of plants) ([3]; mesotrione 105 g ai/ha): 10
- Grade 2 (classification and statistics of the grade of pesticide damage; number of plants) ([3]; mesotrione 105 g ai/ha): 3
- Grade 3 (classification and statistics of the grade of pesticide damage; number of plants) ([3]; mesotrione 105 g ai/ha): 0
